US20240344138A1, “TARGETED THERAPIES IN CANCER” (Feng Biosciences, Inc, priority 2021, published 2024)

Assays:
Assay type in all cases: in vivo, human
[1] = tested on: advanced metastatic hepatocellular carcinoma; experiment: Single arm phase 2 first-line trial of bavituximab and immune checkpoint inhibitor, outcome by TME phenotype; parameters: 6 month progression-free survival (6-month PFS): concentration or dose not given beside the values
Description: (§1) A single arm phase 2 clinical trial is run to determine whether advanced metastatic hepatocellular carcinoma tumor microenvironment phenotypes correlate to clinical responses when patients are treated with Bavituximab and an immune checkpoint inhibitor in the first-line setting. The analysis includes samples from 28 patients. RNA gene signatures are analyzed from tumor samples acquired before any treatments and TME phenotypes are determined. Patients are followed for clinical response, progression-free survival, and overall survival.
(§2) Hepatocellular carcinoma patients receive a regimen of Bavituximab plus an immune checkpoint inhibitor (anti-PD-(L)1—i.e., an inhibitor to PD-1 or PD-L1) therapy. […] Twenty-eight (28) patients are enrolled, with equal representation across the 4 stromal phenotypes (7 in each phenotype). The correlation between each TME phenotype is tested against clinical outcome data. In patients that are biomarker positive, represented by immune active (IA) and immune suppressed (IS) phenotypes, the use of the regimen of Bavituximab/immune checkpoint inhibitor confers benefit in comparison to patients classified as biomarker negative, comprised of angiogenic (A) and immune desert (ID) TME phenotype classes, as shown in the TABLE 31.

[2] = tested on: metastatic gliomas and glioblastoma; experiment: Clinical trial of radiation, bavituximab and a checkpoint inhibitor, best objective response versus TME biomarker status
Description: A clinical trial is run to treat metastatic gliomas and glioblastoma with a combination of radiation, the anti-phosphatidylserine (anti-PS) targeting antibody bavituximab, and a checkpoint inhibitor (CPI), such as a PD-(L)1, e.g. pembrolizumab or nivolumab. Tumor tissue samples from surgical resections of glioblastoma are RNA sequenced and TME phenotypes are determined. Patients are followed for ORR.

[3] = tested on: recurrent/metastatic squamous carcinoma of head and neck (HNSCC); experiment: Single arm phase 2 trial of bavituximab and immune checkpoint inhibitor after progression on an immune checkpoint inhibitor, outcome by TME phenotype
Description: as §1, with “recurrent/metastatic squamous” for “advanced metastatic hepatocellular”, “carcinoma of head and neck (HNSCC)” for “carcinoma”, “following progression on an immune checkpoint inhibitor (e.g., nivolumab, pembrolizumab, durvalumab, atezolizumab, etc.).” for “in the first-line setting.”
as §2, with “HNSCC” for “Hepatocellular carcinoma”, “In” for “In patients that are”, “positive patients,” for “positive,”, “32.” for “31.”

[4] = tested on: advanced colorectal cancers metastatic to liver (mCRC); experiment: Phase 2 trial of navicixizumab, innate immune activating agent and PD-(L)1 agent (3L+), outcome by TME phenotype; parameters: mPFS: unit not given beside the values; conditions: 3L+ mCRC
From the text: A phase 2 clinical trial is run to determine clinical benefit in patients with advanced colorectal cancers metastatic to liver (mCRC) treated with a triplet combination of navicixizumab, an innate immune activating agent, and a PD-(L)1 agent. In this setting, regorafenib or trifluoridine/tipiracil therapy typically yield a median PFS (mPFS) of ˜2 months and median OS (mOS) of ˜7 months. […] The analysis includes enrollment of 60 patients with prospectively defined, retrospective analysis of liver metastatic lesions by the classifying the TME phenotypes as A, IA, IS or ID.
MSS+ advanced colorectal cancer patients (3L+) with liver metastases are treated with the triplet combination of navicixizumab, an anti-PD(L)1 therapy and an innate immune stimulating agent, such as the Dectin agonist Imprime PGG, the STING agonist BMS-986301 and the NLR agonist BMS-986299. ORR, mPFS, 3-month PFS rate, mOS and OS rate at 9 months are assessed across all TME phenotypes. […] patients received a greater clinical benefit than the standard of care for 3L+ mCRC with regorafenib or trifluoridine/tipiracil.

B1: Bavituximab/immune checkpoint inhibitor: bavituximab plus an immune checkpoint inhibitor (anti-PD-(L)1) (antibody, chains of the INN, looked up, V domains shown)
VH: EVQLQQSGPELEKPGASVKLSCKASGYSFTGYNMNWVKQSHGKSLEWIGHIDPYYGDTSYNQKFRGKATLTVDKSSSTAYMQLKSLTSEDSAVYYCVKGGYYGHWYFDVWGAGTTVTVSS
VL: DIQMTQSPSSLSASLGERVSLTCRASQDIGSSLNWLQQGPDGTIKRLIYATSSLDSGVPKRFSGSRSGSDYSLTISSLESEDFVDYYCLQYVSSPPTFGAGTKLELK
modifications: plus immune checkpoint inhibitor
For B1, the “6 month progression-free survival (6-month PFS)” value ([1]; all patients, first-line) was ~57.2%, the “Overall response rate (ORR)” value ([1]; all patients, first-line) was ~32% and the “overall survival (OS)” value ([1]; all patients, first-line) was ~20 months.

B2: bavituximab, checkpoint inhibitor, and radiation (antibody, chains of the INN, looked up, V domains shown)
VH: EVQLQQSGPELEKPGASVKLSCKASGYSFTGYNMNWVKQSHGKSLEWIGHIDPYYGDTSYNQKFRGKATLTVDKSSSTAYMQLKSLTSEDSAVYYCVKGGYYGHWYFDVWGAGTTVTVSS
VL: DIQMTQSPSSLSASLGERVSLTCRASQDIGSSLNWLQQGPDGTIKRLIYATSSLDSGVPKRFSGSRSGSDYSLTISSLESEDFVDYYCLQYVSSPPTFGAGTKLELK
modifications: with checkpoint inhibitor and radiation
In the case of B2, the “Best Objective Response CR, number of patients” value (shortened to “Best Objective Response CR”) ([2]; TME A) is reported as 0, the “Best Objective Response PD, number of patients” value (shortened to “Best Objective Response PD”) ([2]; TME A) is reported as 4 and the “Best Objective Response PR, number of patients” value (shortened to “Best Objective Response PR”) ([2]; TME A) is reported as 1. For the same molecule, the “Best Objective Response SD, number of patients” value (shortened to “Best Objective Response SD”) ([2]; TME A) was 1, the “Best Objective Response CR” value ([2]; TME IA) was 0 and the “Best Objective Response PD” value ([2]; TME IA) was 4. The “Best Objective Response PR” value ([2]; TME IA) was 3, the “Best Objective Response SD” value ([2]; TME IA) was 2 and the “Best Objective Response CR” value ([2]; TME ID) was 0. For the same molecule, the “Best Objective Response PD” value ([2]; TME ID) was 6, the “Best Objective Response PR” value ([2]; TME ID) was 1 and the “Best Objective Response SD” value ([2]; TME ID) was 1. For the same molecule, the “Best Objective Response CR” value ([2]; TME IS) was 0, the “Best Objective Response PD” value ([2]; TME IS) was 4 and the “Best Objective Response PR” value ([2]; TME IS) was 4. The “Best Objective Response SD” value ([2]; TME IS) was 4.

B3: Bavituximab plus immune checkpoint inhibitor (antibody, chains of the INN, looked up, V domains shown)
VH: EVQLQQSGPELEKPGASVKLSCKASGYSFTGYNMNWVKQSHGKSLEWIGHIDPYYGDTSYNQKFRGKATLTVDKSSSTAYMQLKSLTSEDSAVYYCVKGGYYGHWYFDVWGAGTTVTVSS
VL: DIQMTQSPSSLSASLGERVSLTCRASQDIGSSLNWLQQGPDGTIKRLIYATSSLDSGVPKRFSGSRSGSDYSLTISSLESEDFVDYYCLQYVSSPPTFGAGTKLELK
modifications: plus immune checkpoint inhibitor
For B3, the “6-month progression free survival (PFS) rate” value ([1]; Biomarker Negative (n = 14)) was 35.7%, the “Overall response rate (ORR)” value ([1]; Biomarker Negative (n = 14)) was 14% and the “overall survival (OS)” value ([1]; Biomarker Negative (n = 14)) was 16.2 months. The “6-month progression free survival (PFS) rate” value ([1]; Biomarker Positive (n = 14)) was 78.6%, the “Overall response rate (ORR)” value ([1]; Biomarker Positive (n = 14)) was 50% and the “overall survival (OS)” value ([1]; Biomarker Positive (n = 14)) was 23.8 months. The “6-month progression free survival (PFS) rate” value ([1]; TME phenotype A (n = 7)) was 42.8%, the “Overall response rate (ORR)” value ([1]; TME phenotype A (n = 7)) was 14% and the “overall survival (OS)” value ([1]; TME phenotype A (n = 7)) was 16.7 months. For the same molecule, the “6-month progression free survival (PFS) rate” value ([1]; TME phenotype IA (n = 7)) was 71.4%, the “Overall response rate (ORR)” value ([1]; TME phenotype IA (n = 7)) was 43% and the “overall survival (OS)” value ([1]; TME phenotype IA (n = 7)) was 22.4 months. For the same molecule, the “6-month progression free survival (PFS) rate” value ([1]; TME phenotype ID (n = 7)) was 28.6%, the “Overall response rate (ORR)” value ([1]; TME phenotype ID (n = 7)) was 14% and the “overall survival (OS)” value ([1]; TME phenotype ID (n = 7)) was 15.7 months. The “6-month progression free survival (PFS) rate” value ([1]; TME phenotype IS (n = 7)) was 85.7%, the “Overall response rate (ORR)” value ([1]; TME phenotype IS (n = 7)) was 57% and the “overall survival (OS)” value ([1]; TME phenotype IS (n = 7)) was 25.2 months. The “Overall response rate (ORR)” value ([3]; Biomarker Negative (n = 14)) was 14.3%, the “overall survival (OS)” value ([3]; Biomarker Negative (n = 14)) was 7.8 months and the “progression free survival (PFS)” value ([3]; Biomarker Negative (n = 14)) was 2.5 months. The “Overall response rate (ORR)” value ([3]; Biomarker Positive (n = 14)) was 36.4%, the “overall survival (OS)” value ([3]; Biomarker Positive (n = 14)) was 11.2 months and the “progression free survival (PFS)” value ([3]; Biomarker Positive (n = 14)) was 5.5 months. The “Overall response rate (ORR)” value ([3]; TME phenotype A (n = 7)) was 14.3%, the “overall survival (OS)” value ([3]; TME phenotype A (n = 7)) was 8.6 months and the “progression free survival (PFS)” value ([3]; TME phenotype A (n = 7)) was 2.6 months. For the same molecule, the “Overall response rate (ORR)” value ([3]; TME phenotype IA (n = 7)) was 28.6%, the “overall survival (OS)” value ([3]; TME phenotype IA (n = 7)) was 11.0 months and the “progression free survival (PFS)” value ([3]; TME phenotype IA (n = 7)) was 5.3 months. For the same molecule, the “Overall response rate (ORR)” value ([3]; TME phenotype ID (n = 7)) was 14.3%, the “overall survival (OS)” value ([3]; TME phenotype ID (n = 7)) was 7.0 months and the “progression free survival (PFS)” value ([3]; TME phenotype ID (n = 7)) was 2.4 months. The “Overall response rate (ORR)” value ([3]; TME phenotype IS (n = 7)) was 42.9%, the “overall survival (OS)” value ([3]; TME phenotype IS (n = 7)) was 11.4 months and the “progression free survival (PFS)” value ([3]; TME phenotype IS (n = 7)) was 5.7 months.

B4: navicixizumab, an anti-PD(L)1 therapy and an innate immune stimulating agent (antibody, chains of the INN, looked up, V domains shown)
VH: QVQLVQSGAEVKKPGASVKISCKASGYSFTAYYIHWVKQAPGQGLEWIGYISNYNRATNYNQKFKGRVTFTTDTSTSTAYMELRSLRSDDTAVYYCARDYDYDVGMDYWGQGTLVTVSS
VL: DIVMTQSPDSLAVSLGERATISCRASESVDNYGISFMKWFQQKPGQPPKLLIYAASNQGSGVPDRFSGSGSGTDFTLTISSLQAEDVAVYYCQQSKEVPWTFGGGTKVEIK
VH2: QVQLVQSGAEVKKPGASVKVSCKASGYTFTNYWMHWVRQAPGQGLEWMGDINPSNGRTSYKEKFKRRVTLSVDKSSSTAYMELSSLRSEDTAVYFCTIHYDDKYYPLMDYWGQGTLVTVSS
VL2: DIVMTQSPDSLAVSLGERATISCRASESVDNYGISFMKWFQQKPGQPPKLLIYAASNQGSGVPDRFSGSGSGTDFTLTISSLQAEDVAVYYCQQSKEVPWTFGGGTKVEIK
modifications: with anti-PD(L)1 and innate immune stimulant
For B4, the ORR ([4]; TME phenotype A (n = 12)) was 25%, the “PFS rate (3 month)” value ([4]; TME phenotype A (n = 12)) was 30% and the mOS ([4]; TME phenotype A (n = 12)) was 12 mos. For the same molecule, the mPFS ([4]; TME phenotype A (n = 12)) was 6, the ORR ([4]; TME phenotype IA (n = 12)) was 35% and the “OS rate (9 month)” value ([4]; TME phenotype IA (n = 12)) was 50%. The “PFS rate (3 month)” value ([4]; TME phenotype IA (n = 12)) was 30%, the mOS ([4]; TME phenotype IA (n = 12)) was 12 mos and the mPFS ([4]; TME phenotype IA (n = 12)) was 6. The ORR ([4]; TME phenotype ID (n = 24)) was 20%, the “OS rate (9 month)” value ([4]; TME phenotype ID (n = 24)) was 40% and the “PFS rate (3 month)” value ([4]; TME phenotype ID (n = 24)) was 30%. For the same molecule, the mOS ([4]; TME phenotype ID (n = 24)) was 10 mos, the mPFS ([4]; TME phenotype ID (n = 24)) was 4 and the ORR ([4]; TME phenotype IS (n = 12)) was 30%. For the same molecule, the “OS rate (9 month)” value ([4]; TME phenotype IS (n = 12)) was 45%, the “PFS rate (3 month)” value ([4]; TME phenotype IS (n = 12)) was 30% and the mOS ([4]; TME phenotype IS (n = 12)) was 11 mos. For the same molecule, the mPFS ([4]; TME phenotype IS (n = 12)) was 5.
